Tests used:
Ubc9 (wild type) = Ubc9 (wild type) (UniProt P63279); assay: ITC; 2 μl additions of peptide to 200 μl of WT Ubc9 or Ac-Ubc9K65; 25 °C; pH 8.0, 20 mM potassium phosphate, 100 mM NaCl; iTC200; fitted assuming 1:1 binding stoichiometry
[1] = target: Ac-Ubc9K65 (Ubc9 acetylated at K65) (UniProt P63279); assay: as above
Chain of Ac-Ubc9K65 (Ubc9 acetylated at K65) (P63279 whole entry): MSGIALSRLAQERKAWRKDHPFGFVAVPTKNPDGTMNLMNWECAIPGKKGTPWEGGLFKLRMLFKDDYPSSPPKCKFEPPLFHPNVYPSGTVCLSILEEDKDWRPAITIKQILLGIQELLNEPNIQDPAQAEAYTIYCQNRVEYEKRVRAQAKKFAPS

Chain of Ubc9 (wild type) (P63279 whole entry): as above

**Q.** How did the Kd (Ubc9 (wild type)) turn out when Calpain2 NDSM peptide was run?
**A.** 56 µM

**Q.** What about the Kd [1] of the same substance?
**A.** 80 µM

**Q.** “Elk1 NDSM peptide (from UniProt P19419 242-261)” was tested. Which Kd (Ubc9 (wild type)) did it give?
**A.** 70 µM

**Q.** And the Kd [1]?
**A.** 103 µM

**Q.** What does the source list for “RanGAP1 peptide (consensus sumoylation motif) (from UniProt P46060 517-536)”?
**A.** Kd (Ubc9 (wild type)): 13 µM; Kd [1]: 13 µM

— publication PMC5727262, “Molecular mechanism of K65 acetylation-induced attenuation of Ubc9 and the NDSM interaction” (Scientific Reports, 2017)
